Test results as given in paper PMC2234252 (The Journal of Cell Biology, 2008).
Positions count from the first letter of the chain named. In names and notes the source's numbering stands.

B1: hZW10 DI69AA (natural protein, human, UniProt O43264 1-779, looked up)
chain: MASFVTEVLAHSGRLEKEDLGTRISRLTRRVEEIKGEVCNMISKKYSEFLPSMQSAQGLITQVDKLSEAADLLKSRIESEVRRDLHVSTGEFTDLKQQLERDSVVLSLLKQLQEFSTAIEEYNCALTEKKYVTGAQRLEEAQKCLKLLKSRKCFDLKILKSLSMELTIQKQNILYHLGEEWQKLIVWKFPPSKDTSSLESYLQTELHLYTEQSHKEEKTPMPPISSVLLAFSVLGELHSKLKSFGQMLLKYILRPLASCPSLHAVIESQPNIVIIRFESIMTNLEYPSPSEVFTKIRLVLEVLQKQLLDLPLDTDLENEKTSTVPLAEMLGDMIWEDLSECLIKNCLVYSIPTNSSKLQQYEEIIQSTEEFENALKEMRFLKGDTTDLLKYARNINSHFANKKCQDVIVAARNLMTSEIHNTVKIIPDSKINVPELPTPDEDNKLEVQKVSNTQYHEVMNLEPENTLDQHSFSLPTCRISESVKKLMELAYQTLLEATTSSDQCAVQLFYSVRNIFHLFHDVVPTYHKENLQKLPQLAAIHHNNCMYIAHHLLTLGHQFRLRLAPILCDGTATFVDLVPGFRRLGTECFLAQMRAQKGELLERLSSARNFSNMDDEENYSAASKAVRQVLHQLKRLGIVWQDVLPVNIYCKAMGTLLNTAISEVIGKITALEDISTEDGDRLYSLCKTVMDEGPQVFAPLSEESKNKKYQEEVPVYVPKWMPFKELMMMLQASLQEIGDRWADGKGPLAAAFSSSEVKALIRALFQNTERRAAALAKIK
B2: hZW10 GLI58AAA (natural protein, human, UniProt O43264 1-779, looked up)
chain: B1 chain with G58A, L59A, I60A, A69D, A70I
B3: hZW10 S55A (natural protein, human, UniProt O43264 1-779, looked up)
chain: B1 chain with S55A, A69D, A70I
B4: hZW10 SE67AA (natural protein, human, UniProt O43264 1-779, looked up)
chain: B1 chain with S67A, E68A, A69D, A70I
B5: hZW10 SE79AA (natural protein, human, UniProt O43264 1-779, looked up)
chain: B1 chain with A69D, A70I, S79A, E80A

molecular target: T1, hZwint-1 (human, UniProt O95229 1-277); assay: two-hybrid
T1 sequence (looked up): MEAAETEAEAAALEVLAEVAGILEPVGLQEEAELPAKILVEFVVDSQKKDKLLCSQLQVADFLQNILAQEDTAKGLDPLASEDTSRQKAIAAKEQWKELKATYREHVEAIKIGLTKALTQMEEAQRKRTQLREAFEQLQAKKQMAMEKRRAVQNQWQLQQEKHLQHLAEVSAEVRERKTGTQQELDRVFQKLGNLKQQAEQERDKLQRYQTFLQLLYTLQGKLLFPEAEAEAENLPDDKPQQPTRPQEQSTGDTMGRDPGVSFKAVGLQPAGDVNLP

Compared with B1, B2 is higher in β-galactosidase assay: 1.2 for the first, 2.7 for the second.

Going from B3 to B4, the β-galactosidase assay falls from 449 to 1.8.

Work on B5 yielded a β-galactosidase assay of 131.
